Reference: US10456465B2, “Compositions, kits, and methods for the diagnosis prognosis, monitoring, treatment and modulation of post-transplant lymphoproliferative disorders and hypoxia associated angiogenesis disorders using galectin-1” (Dana-Farber Cancer Institute, Inc., priority 2009, dated 2019)

Key:
HUVEC [1] = assay: HUVEC migration (transwell); type: cell-based, human
Method: (§1) HUVEC transfected or not with specific siRNA or pre-incubated with signaling pathway inhibitors were exposed to VEGF or Gal1 with or without lactose, sucrose, 8F4F8G7 mAb or control isotype (IgG1κ) or specific antibodies for VEGFR1 (AP-MAB0702; Abcam), VEGFR2 (AF357; R&D), VEGFR3 (AB89501; Abcam) or VEGF (MAB293; R&D). Cells were processed for proliferation, migration, invasion and tube formation assays. Tumor-associated blood vessels were identified by flow cytometry using Alexa Fluor 647-conjugated anti-CD34 antibody (RAM34; eBioscience).
(§2) The formation of capillary-like tubular structures was assessed in Matrigel-coated plates essentially as described in Albini et al. (2001), Cancer Res 61, 8171-8178. In brief, HUVEC (3×10^4 cells/ml) transfected or not with specific siRNA or pre-incubated with signaling pathway inhibitors were seeded on Matrigel with our without Gal1 (0.1 to 3 μM) or VEGF (20 ng/ml) with or without lactose, sucrose, 8F4F8G7 mAb (0.5 μM) or isotype control (IgG1K) or blocking antibodies specific for VEGFR1 (5 μg/ml), VEGFR2 (2 μg/ml), VEGFR3 (10 μg/ml) or VEGF (10 μg/ml). Cells were incubated at 37° C. for periods ranging from 0 to 24 h and were visualized by phase-contrast microscopy. In another set of experiments, conditioned medium from hypoxic or normoxic KS cells infected or not with a retroviral vector containing Gal1 shRNA was assessed on HUVEC transfected or not with GnT5, GCNT1 or scr siRNA (100 nM). Capillary-like tubular structures were scored by counting the number of tubules (closed areas) per well in a phase-contrast microscope (Nikon E-100). For migration assays, HUVEC (4×10^4/well) transfected or not with specific siRNA were resuspended in M199 medium supplemented with 1% FCS. Cells were placed into the top chamber of the insert while the bottom well was filled with Gal1 or VEGF in the absence or presence of lactose, sucrose, 8F4F8G7 mAb or isotype control. After 24 hours, inserts were stained with crystal violet (Sigma) and analyzed in an inverted microscope. For each filter, 4 images were collected and cells were counted with the ImageJ software v1.34 (NIH).

HUVEC [2] = assay: HUVEC capillary tube formation on Matrigel; type: cell-based, human
Method: as §1, §2

Gal1 = biological target: T1, Gal1 (Homo sapiens, UniProt P09382); assay: Binding of 488-Gal1 to HUVEC
T1 construct: made in house
Method: For glycophenotyping, ECs were incubated with biotinylated L-PHA, LEL, SNA, MAL II, PNA and HPA (all from Vector). Recombinant Gal1 was purified as described in Ilarregui et al. (2009) Nat Immunol 10, 981-991. For binding assays, ECs were incubated for 1 h at 4° C. with dyLight 488-labeled galectins in the absence or presence of lactose, sucrose, anti-Gal1 or isotype control mAb or following transfection with GnT5, GCNT1 or scrambled siRNA. Cells were analyzed on a FACSAria (BD Biosciences). For segregation, ECs were treated with Gal1 for 1 h, fixed and incubated for 1 h with anti-human VEGFR2 antibody (55B11; Cell Signaling) as described in Ilarregui et al. (2009) Nat Immunol 10, 981-991. Cells were analyzed on a Nikon laser confocal microscope (Eclipse E800).
DyLight 488-conjugated Gal1 (488-Gal1) was obtained using DyLight labeling kit (Thermo Scientific). Inhibitors of Jak2-STAT3 (AG490; 5 μM), Jnk-SAP (SP600125; 20 μM), p38 (SB202190; 10 μM), HIF-1α (3 μM) and O-glycosylation (benzyl-α-Ga1NAc; 2 mM) were from Calbiochem. Inhibitors of Erk1/2 (U0126; 5 μM), PI(3)K-Akt (Ly294002; 2 μM) and NF-κB (BAY 11-7082; 1 μM), ROS (N-acetyl-cysteine; NAC), N-glycosylation (swainsonine; 3 μM), lactose or sucrose (30 mM) were from Sigma. PNGase F (25 U/μg protein) was from New England Biolabs. Recombinant cytokines including IL-10 (50 ng/ml), IL-17 (5 ng/ml), TGF-β1 (3 ng/ml), IFN-γ (50 ng/ml), VEGF (20 ng/ml), bFGF (10 ng/ml) were from R&D. TNF (20 ng/ml) was from Sigma. Biotinylated lectins, including L-PHA (2 μg/ml), LEL (1 μg/ml), SNA (5 μg/ml), MAL II (10 μg/ml), PNA (10 μg/ml) and HPA (10 μg/ml) were purchased from Vector Labs and incubated in buffer containing 150 mM NaCl, 10 mM HEPES and 1% BSA (Sigma). ON-TARGETplus SMART siRNA pools against GnT5, GCNT1, VEGFR2, NRP-1, VEGF, HIF-1α and scrambled were obtained from Dharmacon. Transfections were performed by Lipofectamine-RNAiMAX (Invitrogen) following manufacturer's directions. Recombinant Gal3 and Gal8 were purified as described in Acosta-Rodriguez et al. (2004) J Immunol 172, 493-502 and Cardenas Delgado et al. (2010) FASEB J [Epub ahead of print].

HUVEC [3] = assay: HUVEC proliferation ([3H]thymidine incorporation); type: cell-based, human
Method: as §1
For proliferation assays, HUVEC that were transfected or not with specific siRNA and cultured in complete M199 medium were trypsinized, harvested and seeded in 96-well microtiter plates (1×10^3 cells/well). Cells were pre-incubated for 1 hour at 37° C. with lactose, sucrose or signaling pathway inhibitors and then exposed to Gal1. After 24 hours, cells were incubated for an additional 24 hours in the presence of 0.8 μCi [^3H]-thymidine (NEN Dupont). Cells were then harvested and radioactivity was measured in a 1414 Liquid Scintillation Counter (Perkin Elmer).

T1 sequence (P09382 whole entry): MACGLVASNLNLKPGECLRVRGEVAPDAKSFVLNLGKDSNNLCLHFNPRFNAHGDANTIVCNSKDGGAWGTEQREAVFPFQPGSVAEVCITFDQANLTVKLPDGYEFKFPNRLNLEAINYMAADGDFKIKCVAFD

Molecule	EC migration (HUVEC [1]; HUVEC treated with Gal1)	formation of three-dimensional tubular networks (HUVEC [2]; HUVEC treated with Gal1)	binding of fluorescently-labeled Gal1 to ECs (Gal1; flow cytometry)	EC proliferation (HUVEC [3]; HUVEC treated with Gal1)	effect on Gal1-induced EC migration (HUVEC [1]; induced by Gal1)	effect on EC migration in the absence of exogenous Gal1 (HUVEC [1]; no exogenous Gal1)	effect on Gal1-induced capillary tube formation (HUVEC [2]; induced by Gal1)	effect on tube formation in the absence of exogenous Gal1 (HUVEC [2]; no exogenous Gal1)	effect on binding of Gal1 to ECs (Gal1; lactose/sucrose 30 mM, swainsonine 3 μM, benzyl-α-GalNAc 2 mM, mAb 0.5 μM)	effect on Gal1-induced EC proliferation (HUVEC [3]; induced by Gal1)
rGal1: recombinant human galectin-1	elicited	at levels similar to those attained by VEGF	bound to ECs in a dose- and carbohydrate-dependent fashion	elicited						
anti-Gal1 monoclonal antibody 8F4F8G7 (antibody, V domains shown, Murine hybridoma mAb (deposit PTA-10535), lambda light chain; also called 14-19 8F4-F8-G7; clone 8F4.8F.67) VH: EVQLQQSVAEFVRPGASVRLSCTASGFNIKNTYIHWVRQRPEQGLEWIGKIDPANGNTKYVPEFQGKATMTADTSSNTVYLHLSSLTSEDTAIYYCVDGYYGWYFAVWGTGTTVTVSS VL: QAVVTQESALTTSPGETVTLTCRSSTGAVTTSNYANWVQEKPDHLFTGLIGATNNRAPGVPARFSGSLIGDKAVLTITGAQTEDEAIYFCALWYRNHFIFGSGTKVTVL					prevent	did not alter	prevent	did not alter	prevented	prevent
